Assay results from paper PMC8310357.

Molecular target: Ostreolysin A6 (Pleurotus ostreatus) (UniProt P83467)
Chain of UniProt P83467 (P83467 whole entry): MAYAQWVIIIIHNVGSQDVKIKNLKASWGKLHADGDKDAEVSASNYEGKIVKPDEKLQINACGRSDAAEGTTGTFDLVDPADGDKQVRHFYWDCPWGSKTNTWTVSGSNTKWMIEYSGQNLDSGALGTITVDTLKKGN

Δ48EryB (erylysin B) (natural protein)
haemolysis of bovine erythrocytes, aegerolysin/MACPF-protein 12.5/1, 25 °C; against OlyA6/PlyB: 90 % lower
